Data published in patent US20120251547A1 (Amgen, published 2012).

T1: chimera B
T1 construct: human IL-17RA extracellular domain with mouse Domain B; column head 75-96; also called Construct B
T1 IL-17RA extracellular domain with FLAG-polyHis tag: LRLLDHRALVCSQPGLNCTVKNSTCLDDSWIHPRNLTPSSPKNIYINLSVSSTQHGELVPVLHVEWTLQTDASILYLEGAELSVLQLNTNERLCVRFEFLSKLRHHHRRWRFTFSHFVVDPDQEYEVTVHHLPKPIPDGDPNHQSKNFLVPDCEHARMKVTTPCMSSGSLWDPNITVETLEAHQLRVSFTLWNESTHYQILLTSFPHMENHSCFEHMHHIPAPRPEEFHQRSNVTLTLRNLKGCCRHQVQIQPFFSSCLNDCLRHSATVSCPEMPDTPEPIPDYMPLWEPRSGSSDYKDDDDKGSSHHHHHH

T2: chimera H
T2 construct: human IL-17RA extracellular domain with mouse Domains B and E; also called Construct H
T2 IL-17RA extracellular domain with FLAG-polyHis tag: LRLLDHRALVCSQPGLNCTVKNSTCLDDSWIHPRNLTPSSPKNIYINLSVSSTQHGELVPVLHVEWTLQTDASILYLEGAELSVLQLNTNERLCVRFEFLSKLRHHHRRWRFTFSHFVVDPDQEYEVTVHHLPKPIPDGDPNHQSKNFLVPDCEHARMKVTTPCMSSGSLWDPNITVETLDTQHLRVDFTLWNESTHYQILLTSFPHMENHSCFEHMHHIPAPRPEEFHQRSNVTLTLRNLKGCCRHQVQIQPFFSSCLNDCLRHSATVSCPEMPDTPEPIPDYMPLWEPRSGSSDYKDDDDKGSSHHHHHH


Key:
[1] = target: T3, huIL-17RA-FLAG-polyHis (human, UniProt Q96F46 33-320); test: binning; IL-17RA held by bead mAb K
T3 construct: also called IL-17RA-FLAG-pHis; wild-type IL-17RA

[2] = target: T3, huIL-17RA-FLAG-polyHis; test: binning; IL-17RA held by bead mAb F
[3] = target: T4, chimera E; test: Bio-Plex titration on His-captured chimera;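 further: binding of anti-IL-17RA antibodies (4-fold titration across about 5 logs, 1 h) to His-captured IL-17RA chimeras on multiplexed beads, MFI read as percent of maximal wild-type human IL-17RA signal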
T4 construct: human IL-17RA extracellular domain with mouse Domain E; also called Construct E

[4] = target: T1, chimera B; test: Bio-Plex titration on His-captured chimera;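 further: binding of anti-IL-17RA antibodies (4-fold titration across about 5 logs, 1 h) to His-captured IL-17RA chimeras on multiplexed beads, MFI read as percent of maximal wild-type human IL-17RA signal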
[5] = target: T5, chimera G; test: Bio-Plex titration on His-captured chimera;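 further: binding of anti-IL-17RA antibodies (4-fold titration across about 5 logs, 1 h) to His-captured IL-17RA chimeras on multiplexed beads, MFI read as percent of maximal wild-type human IL-17RA signal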
T5 construct: human IL-17RA extracellular domain with mouse Domains A and E; also called Construct G

[6] = target: T2, chimera H; test: Bio-Plex titration on His-captured chimera;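 further: binding of anti-IL-17RA antibodies (4-fold titration across about 5 logs, 1 h) to His-captured IL-17RA chimeras on multiplexed beads, MFI read as percent of maximal wild-type human IL-17RA signal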
[7] = target: T6, chimera C; test: Bio-Plex titration on His-captured chimera
T6 construct: human IL-17RA extracellular domain with mouse Domain C; also called Construct C

[8] = target: T7, chimera A; test: Bio-Plex titration on His-captured chimera
T7 construct: human IL-17RA extracellular domain with mouse Domain A; column head aa 38-51; also called Construct A

[9] = target: T8, chimera I; test: Bio-Plex titration on His-captured chimera
T8 construct: human IL-17RA extracellular domain with mouse Domains C and E; also called Construct I

[10] = target: T9, chimera L; test: Bio-Plex titration on His-captured chimera
T9 construct: human IL-17RA extracellular domain with mouse Domains B and F; B+F; also called Construct L

[11] = target: T3, huIL-17RA-FLAG-polyHis; test: binning; IL-17RA held by bead mAb P
[12] = target: T3, huIL-17RA-FLAG-polyHis; test: binning; IL-17RA held by bead mAb B
[13] = target: T3, huIL-17RA-FLAG-polyHis; test: Bio-Plex, His-tagged wild-type huIL-17RA on pentaHis beads, antibody titration, PE anti-human IgG Fc
[14] = target: T3, huIL-17RA-FLAG-polyHis; test: binning; IL-17RA held by bead mAb E
[15] = target: T3, huIL-17RA-FLAG-polyHis; test: binning; IL-17RA held by bead mAb I
[16] = target: T3, huIL-17RA-FLAG-polyHis; test: binning; IL-17RA held by bead mAb D
[17] = target: T3, huIL-17RA-FLAG-polyHis; test: binning; IL-17RA held by bead mAb A
[18] = target: T3, huIL-17RA-FLAG-polyHis; test: binning; IL-17RA held by bead mAb H
[19] = target: T3, huIL-17RA-FLAG-polyHis; test: binning; IL-17RA held by bead mAb L
[20] = target: human IL-17RA, full-length, on cells (human, UniProt Q96F46 33-866); test: cell-based or functional assay
[21] = target: T3, huIL-17RA-FLAG-polyHis; test: binning; IL-17RA held by bead mAb R
[22] = target: T3, huIL-17RA-FLAG-polyHis; test: binning; IL-17RA held by bead mAb M
[23] = target: human IL-17RA (form used in the low resolution BIAcore not stated) (human, UniProt Q96F46 33-320, limits assumed); test: low resolution BIAcore, subcloned hybridoma
[24] = target: D152R IL-17RA mutant (human, UniProt Q96F46 33-320); test: Bio-Plex titration on His-captured D152R mutant

Row | normalized MFI [1] | normalized MFI [2] | EC50 [3] | EC50 [4] | EC50 [5] | EC50 [6] | EC50 [7] | EC50 [8] | EC50 [9] | normalized MFI [11] | normalized MFI [12] | EC50 [13] | normalized MFI [14] | normalized MFI [15] | normalized MFI [16] | normalized MFI [17] | normalized MFI [18] | normalized MFI [19] | normalized MFI [21] | normalized MFI [22] | Binder | further results
1 | 8970 | 304 | 0.067 nM | 0.063 nM | 0.052 nM | 0.088 nM | 0.052 nM | 0.052 nM | 0.059 nM | 4490 | 1300 | 0.061 nM | 260 | 6890 | 344 | -162 | 4000 | 3590 | 5110 | 2380 | AMH18/AML18 (antibody, IgG2, V domains shown, human mAb from IgG2 XenoMouse mice; also called AM-18; antibody G) VH: QVQLVQSGAEVKKPGASVKVSCKASGYSFTDYYMHWVRQAPGQGLEWMGWMHPNSGGTDLAQRFQGRVTMTRDTSISTAYMELSRLRSDDTAVYYCARGGYCSTLSCSFYWYFDLWGRGTLVTVSS VL: not shown | binding result [10]: no binding; IL-17A/HFF bioassay IC50, subclone 14 [20]: 0.44 nM; IL-17A/HFF bioassay IC50, subclone 15 [20]: 0.4 nM; IL-17A/HFF bioassay IC50, subclone 16 [20]: 0.17 nM; Kd [23]: 14.9 nM; EC50 (read off the curve) [24]: ~0.07 nM
2 | -181 | 2200 | 0.026 nM | 0.017 nM | 0.025 nM | 0.025 nM | 0.03 nM | 0.018 nM | 0.032 nM | 2160 | 1900 | 0.018 nM | 1170 | 2.5 | 1380 | 9530 | 10200 | -58 | 34 | 44.5 | AMH21/AML21 (antibody, IgG2, V domains shown, human mAb from IgG2 XenoMouse mice; also called AM-21; antibody Q) VH: EVQLVESGGGSVQPGGSLRLSCAASGFTFSSYSMNWVRQAPGKGLEWVSIISSRSSIIHYADSVKGRFTISRDNAKNSLYLQMNSLRDEDTAVYYCARPKVGGGMDVWGQGTTVTVSS VL: DIQMTQSPSSLSASVGDRVTITCRASQGISNYLAWYQQKPGKFPELLIYAASTLQSGVPSRFSGSGSGTDFTLTISSLQPEDVATYYCQKYNRAPFTFGPGTKVDIK | EC50 [10]: 0.025 nM; IL-17A/HFF bioassay IC50, subclone 4 [20]: 2.3 nM; IL-17A/HFF bioassay IC50, subclone 5 [20]: 3.1 nM; IL-17A/HFF bioassay IC50, subclone 6 [20]: 3.3 nM; Kd [23]: 16.7 nM; binding result [24]: no binding (tested: log [Ab] about 0.5 (about 3 nM))
3 | -29 | 1240 | 0.027 nM | 0.02 nM | 0.027 nM | 0.033 nM | 0.04 nM | 0.023 nM | 0.042 nM | 1410 | 1060 | 0.022 nM | 666 | 58 | 783 | 6800 | 8300 | 15 | 25 | 24 | AMH20/AML20 (antibody, IgG2, V domains shown, human mAb from IgG2 XenoMouse mice; also called AM-20; antibody R) VH: EVQLVESGGGLVQPGGSLRLSCAASGFTFSSYSMNWVRQAPGKGLEWVSFISARSSTIYYADSVKGRFTISRDNAKNSLYLQMNSLRDEDTAVYYCARPKVGGGMDVWGQGTTVTVSS VL: DIQMTQSPSSLSASVGDRVTITCRASQGISNYLAWYQQKPGKFPELLIYAASTLQSGVPSRFSGSGSGTDFTLTISSLQPEDVATYYCQKYNRAPFTFGPGTKVDIK | EC50 [10]: 0.027 nM; IL-17A/HFF bioassay IC50, subclone 7 [20]: 8.1 nM; IL-17A/HFF bioassay IC50, subclone 8 [20]: 6.6 nM; IL-17A/HFF bioassay IC50, subclone 9 [20]: 6.7 nM; Kd [23]: 11.6 nM; binding result [24]: no binding (tested: log [Ab] about 0.5 (about 3 nM))
